Substrate in the data set: O=[N+]([O-])c1ccc(OP(=O)(O)O)cc1
Put plainly: purified protein, by the assay type.

B1: VHR (Vaccinia H1-related phosphatase) (Homo sapiens) (protein)
chain: MSGSFELSVQDLNDLLSDGSGCYSLPSQPCNEVTPRIYVGNASVAQDIPKLQKLGITHVLNAAEGRSFMHVNTNANFYKDSGITYLGIKANDTQEFNLSAYFERAADFIDQALAQKNGRVLVHCREGYSRSPTLVIAYLMMRQKMDVKSALSIVRQNREIGPNDGFLAQLCQLNDRLAKEGKLKP
As for B1, under “pH 5.5, 37.0 °C”, the Km was 2500 ± 100 µM.

B2: TgLaforin (Toxoplasma gondii ME49) (protein)
chain: MRVRFSVTAFVPPNAQLGVVGSAPFLGEWKLEHCVPLMPYSAPHPQGLEPSLWFRDIDLDPASCPNDTNDVHSTAAVSASCSADRRRCDLSRQSPHCFPSARSASPYMVEVSRGDCPFAVELMSTSQHVLSEFSKHNSPVYSAGEQRFRRSLPSSASFSSCTSSGSAVAATKCVWDAAAYRVATRAPEVQAVLESHPLRHCAFEYKFVLWYPPNGEIAVPYVPTTAGEEVPITYAGDSEVLNEESEGGARRRSWRKWLFPPSPSRCPAPPGPSESIVWEGFGPDSNRKFCFDPFDVVVDVNELGDLECLYICRIAHFRDPRAGGVGEYDLTTRFYNSVKSECRMHYSTIFPRFFVGSCPRQLKHIRHLKEELKVTCVVNLQTEQDLCNNYPDPIASSRSAEAVSQLYDGSGLRYVWLPTADMCDSARKIAVANAAFLLLGLFQSGHSVYMHCNAGVGRSVAAACAFLCFAVGLDLRKVNFLICARRPVAYWDEKAMKYGIGDYQAKFGHCRVVGEEAEERQHA
On to B2, for which, under “other: pH 5.5, 37 °C”, the Km came out at 1000 ± 50 µM and the Vmax came out at 1.4 ± 0.02 nmol PO4/min.
